Bridges are numbered along the chain shown (N, C = ends). Primed or numbered codes have the meaning given here. Where no end group is shown, it is not given here. The star is where a group is joined. Biotin = O=C1N[C@H]2[C@H](CS[C@H]2CCCCC(=O)*)N1; PEG4 = NCCOCCOCCOCCOCCC(=O)O; PEG4′ = not defined here
The binders below were run against Recombinant Human CTLA4-Fc chimera (R&D systems) (human) (UniProt P16410) (assay: BLItz (BLI), biotinylated CTLA-4 on SA chip, MBP fusion as analyte).
Binder GGCMHPFLLVVSHHFCGG (peptide, not shown: large carriers; small tags and cut ends) [H12SSI-Ctla4-3-02 (MBP fusion)] has a Kd of 3.88 µM, a koff of 0.0123 s⁻¹ and a kon of 3180 M⁻¹ s⁻¹.

What follows are binders tested against Recombinant Human CTLA4-Fc chimera (R&D systems) (human) (UniProt P16410) (assay: ELISA, signal over SA).
In the case of GGCMHPYLPIRSFHFCSC (peptide, not shown: large carriers; small tags and cut ends) [C4m#19-5th4w-NN6-49], the ELISA S/N(SA) is reported as 4.
GGCSHPYLPIHSRHFCLS (peptide, not shown: large carriers; small tags and cut ends) [C4m3127-4th-NNS6-70] showed an ELISA S/N(SA) of 4.6.
GGCLHPFLPILSLHFCPF (peptide, not shown: large carriers; small tags and cut ends) [C4m3127-4th-NNS6-20] showed an ELISA S/N(SA) of 4.4.
GGCMHPSLPIWSWHFCPH (peptide, not shown: large carriers; small tags and cut ends) [C4m3127-4th-NNS6-19] showed an ELISA S/N(SA) of 4.1.
GGCLHPWLPIVSCHFCPR (peptide, not shown: large carriers; small tags and cut ends) [C4m#19-5th2w-NNS6-68] gave an ELISA S/N(SA) of 4.6.
Binder GGCFHPFLPIQSRHFCCR (peptide, not shown: large carriers; small tags and cut ends) [C4m#19-5th2w-NNS6-93] has an ELISA S/N(SA) of 3.4.
Binder GGCWHPVLPIRSDHFCCR (peptide, not shown: large carriers; small tags and cut ends) [C4m#19-5th2w-NNS6-41] has an ELISA S/N(SA) of 3.1.
GGCFHPFLPIRSHHFCML (peptide, not shown: large carriers; small tags and cut ends) [C4m#19-5th4w-NN6-40] was tested, and the ELISA S/N(SA) was 4.
GGCLHPYLPIFSVHFCAL (peptide, not shown: large carriers; small tags and cut ends) [C4m#19-5th2w-NNS6-87] was tested, and the ELISA S/N(SA) was 4.5.
Binder GGCRHPFLPIFSWHFCAV (peptide, not shown: large carriers; small tags and cut ends) [C4m#19-5th4w-NN6-80] has an ELISA S/N(SA) of 3.8.
GGCWHPVLPIRSIHFCGC (peptide, not shown: large carriers; small tags and cut ends) [C4m3127-4th-NNS6-37] gave an ELISA S/N(SA) of 3.5.
GGCRHPFLPIFSVHFCPF (peptide, not shown: large carriers; small tags and cut ends) [C4m#19-5th2w-NNS6-66] was tested, and the ELISA S/N(SA) was 4.4.
GGCWHPVLPIRSGHFCSR (peptide, not shown: large carriers; small tags and cut ends) [C4m3127-4th-NNS6-95] was tested, and the ELISA S/N(SA) was 3.4.
GGCCHPWLPIRSVHFCPF (peptide, not shown: large carriers; small tags and cut ends) [C4m#19-5th2w-NNS6-61] was tested, and the ELISA S/N(SA) was 4.3.
With GGCLHPFLPIVSWHFCPC (peptide, not shown: large carriers; small tags and cut ends) [C4m#19-5th2w-NNS6-80] the ELISA S/N(SA) was 3.6.

What follows are binders tested against Recombinant Human CTLA4-Fc chimera (R&D systems) (human) (UniProt P16410) (assay: ELISA, purified MBP fusion on immobilised CTLA-4).
GGCLHPFLPVVSHHFCGD (peptide, not shown: large carriers; small tags and cut ends) [C4-302mat-2-1-2] showed an EC50 of 0.474 µM.
Binder GGCKHPYLPVASHHFCRG (peptide, not shown: large carriers; small tags and cut ends) [C4-302mat-3-1-10] has an EC50 of 0.703 µM.
GGCMHPFLPVVSHHFCGR (peptide, not shown: large carriers; small tags and cut ends) [C4-302mat-3-100-37] was tested, and the EC50 was 0.225 µM.
GGCMHPFLPVVSRHFCGR (peptide, not shown: large carriers; small tags and cut ends) [C4-302mat-3-1-12] gave an EC50 of 0.085 µM.
With GGCKHPFLPVVSHHFCGG (peptide, not shown: large carriers; small tags and cut ends) [C4-302mat-3-100-9] the EC50 was 0.832 µM.
GGCLHPFLPLVSHHFCGG (peptide, not shown: large carriers; small tags and cut ends) [C4-302mat-2-1-38] showed an EC50 of 0.867 µM.
With GGCRHPFLPIVSRHFCRG (peptide, not shown: large carriers; small tags and cut ends) [C4-302mat-3-1-45] the EC50 was 0.3 µM.
GGCMHPFLQTVSHHFCGG (peptide, not shown: large carriers; small tags and cut ends) [C4-302mat-3-1-35] gave an EC50 of 0.668 µM.
For GGCMHPFLPVASHHFCAG (peptide, not shown: large carriers; small tags and cut ends) [C4-302mat-3-100-27], the EC50 was 0.352 µM.
GGCLHPFLPIVSHHFCGR (peptide, not shown: large carriers; small tags and cut ends) [C4-302mat-3-100-44] was tested, and the EC50 was 0.082 µM.
GGCVHPFLPVVSHHFCRG (peptide, not shown: large carriers; small tags and cut ends) [C4-302mat-3-100-20] showed an EC50 of 0.889 µM.
GGCMHPFLLVVSHHFCGG (peptide, not shown: large carriers; small tags and cut ends) [H12SSI-Ctla4-3-02 (MBP fusion)] was tested, and the EC50 was 3.92 µM.
Work on GGCMHPYLPVISHHFCGG (peptide, not shown: large carriers; small tags and cut ends) [C4-302mat-2-1-27] yielded an EC50 of 1.64 µM.
For GGCMHPFLPIVSHHFCGS (peptide, not shown: large carriers; small tags and cut ends) [C4-302mat-2-100-27], the EC50 was 0.189 µM.
GGCMHPFLPVVSRHFCGG (peptide, not shown: large carriers; small tags and cut ends) [C4-302mat-3-1-5] gave an EC50 of 0.674 µM.
GSCMHPFLPVASRHFCGR (peptide, not shown: large carriers; small tags and cut ends) [C4-302mat-3-1-31] was tested, and the EC50 was 0.342 µM.
For GGCMHPFLPVVSHHFCGG (peptide, not shown: large carriers; small tags and cut ends) [C4-302mat-1-1-24], the EC50 was 1.03 µM.
In the case of GGCMHPYLPVISHHFCGR (peptide, not shown: large carriers; small tags and cut ends) [C4-302mat-3-100-12], the EC50 is reported as 0.217 µM.
Work on GGCMHPFLPVTSHHFCGG (peptide, not shown: large carriers; small tags and cut ends) [C4-302mat-2-1-3] yielded an EC50 of 0.826 µM.
In the case of GGCMHPFLPVVSHHFCRG (peptide, not shown: large carriers; small tags and cut ends) [C4-302mat-2-100-18], the EC50 is reported as 0.369 µM.
With GGCMHPFLQVVSHHFCGG (peptide, not shown: large carriers; small tags and cut ends) [C4-302mat-2-100-4] the EC50 was 4.18 µM.
GGCMHPFLPVASHHFCGG (peptide, not shown: large carriers; small tags and cut ends) [C4-302mat-1-1-35] showed an EC50 of 0.288 µM.
For GGCMHPFLPVASHHFCGR (peptide, not shown: large carriers; small tags and cut ends) [C4-302mat-3-1-22], the EC50 was 0.222 µM.
GGCMHPFLRVVSHHFCGG (peptide, not shown: large carriers; small tags and cut ends) [C4-302mat-1-1-37] showed an EC50 of 1.49 µM.
With GGCMHPFLPVVSHHFCGA (peptide, not shown: large carriers; small tags and cut ends) [C4-302mat-3-1-48] the EC50 was 0.187 µM.
With GGCMHPFLPILSHHFCAG (peptide, not shown: large carriers; small tags and cut ends) [C4-302mat-3-1-32] the EC50 was 0.322 µM.
With GGCMHPFLPIASLHFCGR (peptide, not shown: large carriers; small tags and cut ends) [C4-302mat-3-1-23] the EC50 was 0.16 µM.

These binders were tested against Recombinant Human CTLA4-Fc chimera (R&D systems) (human) (UniProt P16410) (assay: BLItz (BLI), biotinylated peptide on SA chip, CTLA-4 protein as analyte).
With {Biotin-PEG4}-KCMHPFLPIVSHHFCER (disulfide 2-15) [biotinylated clone #19: Biotin-PEG4-…] the Kd was 0.0618 µM, the koff was 0.0128 s⁻¹ and the kon was 208000 M⁻¹ s⁻¹.
{Biotin-PEG4′}-KCMHPFLLVVSHHFC (disulfide 2-15) [biotinylated H12SSI-Ctla4-3-02: Biotin-PEG4-…] was tested, and the Kd was 0.191 µM, the koff was 0.022 s⁻¹ and the kon was 115000 M⁻¹ s⁻¹.

The binders below were run against Recombinant Human CTLA4-Fc chimera (R&D systems) (human) (UniProt P16410) (assay: BLItz (BLI), synthetic biotinylated peptides).
In the case of {Biotin-PEG4}-KCMHPFLPIVSHHFCER (disulfide 2-15) [biotinylated clone #19: Biotin-PEG4-…], the fold higher affinity than the original clone (H12SSI-Ctla4-3-02) is reported as 3 fold.

These binders were tested against Recombinant Human CTLA4-Fc chimera (R&D systems) (human) (UniProt P16410) (assay: ELISA EC50, purified MBP fusions).
Binder GGCMHPFLPVVSRHFCGR (peptide, not shown: large carriers; small tags and cut ends) [C4-302mat-3-1-12] has a fold improvement of affinity over the original clone of 50 fold.
Binder GGCLHPFLPIVSHHFCGR (peptide, not shown: large carriers; small tags and cut ends) [C4-302mat-3-100-44] has a fold improvement of affinity over the original clone of 50 fold.

Source: US20240092836A1
